# Data: the Immune Epitope Database (IEDB)
# Tests used:
# HLA-A*69:01 = assay: IEDB peptide-MHC binding, purified MHC/direct/fluorescence; filed as Kd, often an IC50 or EC50 that approximates it; ≥ and ≤ were set here for values at or beyond the usual limits of such assays; conditions: source organism: Campylobacter jejuni RM1221
# HLA-A*01:01 [1] = assay: as above; conditions: source organism: Campylobacter jejuni RM1221
# HLA-B*58:01 = assay: as above; conditions: source organism: Campylobacter jejuni RM1221
# HLA-B*44:02 = assay: as above
# HLA-A*03:01 = assay: as above; conditions: source organism: Campylobacter jejuni RM1221
# HLA-B*27:05 = assay: as above; conditions: source organism: Campylobacter jejuni RM1221
# HLA-B*15:01 [2] = assay: as above; conditions: source organism: Campylobacter jejuni RM1221
# HLA-B*07:02 = assay: as above; conditions: source organism: Campylobacter jejuni RM1221
# HLA-A*02:01 [3] = assay: as above; conditions: source organism: Campylobacter jejuni RM1221
# HLA-A*31:01 = assay: as above; conditions: source organism: Campylobacter jejuni RM1221
# HLA-B*40:01 = assay: as above; conditions: source organism: Campylobacter jejuni RM1221
# HLA-B*08:01 [4] = assay: as above; conditions: source organism: Clostridium botulinum NCTC 2916
# HLA-B*08:01 [5] = assay: IEDB peptide-MHC binding, purified MHC/competitive/radioactivity; filed as Kd, often an IC50 or EC50 that approximates it; ≥ and ≤ were set here for values at or beyond the usual limits of such assays
# HLA-A*11:01 = assay: IEDB peptide-MHC binding, purified MHC/competitive/fluorescence; ≥ and ≤ were set here for values at or beyond the usual limits of such assays
# HLA-A*32:01 = assay: IEDB peptide-MHC binding, purified MHC/competitive/radioactivity; filed as Kd, often an IC50 or EC50 that approximates it; ≥ and ≤ were set here for values at or beyond the usual limits of such assays; conditions: source organism: Vaccinia virus WR
# HLA-B*57:01 = assay: as above
# HLA-B*48:01 = assay: IEDB peptide-MHC binding, purified MHC/direct/fluorescence; filed as Kd, often an IC50 or EC50 that approximates it; ≥ and ≤ were set here for values at or beyond the usual limits of such assays; conditions: source organism: Yellow fever virus
# HLA-A*02:01 [6] = assay: IEDB peptide-MHC binding, purified MHC/competitive/fluorescence; ≥ and ≤ were set here for values at or beyond the usual limits of such assays; conditions: source organism: Vaccinia virus WR
# HLA-A*24:02 = assay: as above
# HLA-B*18:01 = assay: IEDB peptide-MHC binding, purified MHC/direct/fluorescence; filed as Kd, often an IC50 or EC50 that approximates it; ≥ and ≤ were set here for values at or beyond the usual limits of such assays; conditions: source organism: dengue virus type 1
# HLA-B*53:01 = assay: IEDB peptide-MHC binding, purified MHC/competitive/radioactivity; filed as Kd, often an IC50 or EC50 that approximates it; ≥ and ≤ were set here for values at or beyond the usual limits of such assays
# HLA-B*35:01 = assay: as above
# HLA-A*01:01 [7] = assay: as above; conditions: source organism: Dengue virus 4 Philippines/H241/1956
# HLA-B*15:01 [8] = assay: as above; conditions: source organism: Dengue virus 4 Philippines/H241/1956
# HLA-A*02:03 = assay: as above; conditions: source organism: Dengue virus 1 Brazil/97-11/1997
# [9] = source organism: Vaccinia virus WR
# [10] = source organism: Sudan ebolavirus
# [11] = source organism: Dengue virus 1 Brazil/97-11/1997
# [12] = source organism: Dengue virus 3 Martinique/1243/1999
# [13] = source organism: Dengue virus 4 Philippines/H241/1956
sequence,measurement,setting,value
IYDYLRLLY,Kd,HLA-A*69:01,≥ 20000 nM
same,Kd,HLA-A*01:01 [1],5140 nM
same,Kd,HLA-B*58:01,≥ 20000 nM
same,Kd,HLA-B*44:02; source organism: Campylobacter jejuni RM1221,≥ 20000 nM
same,Kd,HLA-A*03:01,≥ 20000 nM
same,Kd,HLA-B*27:05,≥ 20000 nM
same,Kd,HLA-B*15:01 [2],≥ 20000 nM
same,Kd,HLA-B*07:02,≥ 20000 nM
same,Kd,HLA-A*02:01 [3],≥ 20000 nM
same,Kd,HLA-A*31:01,≥ 20000 nM
same,Kd,HLA-B*40:01,≥ 20000 nM
same,Kd,HLA-B*08:01 [4],≥ 20000 nM
DYRFRFRSV,Kd,HLA-B*08:01 [5]; [9],683 nM
WCRLKFHIV,Kd,HLA-B*08:01 [5]; source organism: Vaccinia virus Copenhagen,81.9 nM
CPGDYAFHK,IC50,HLA-A*11:01; [10],55300 nM
RSMYRIPPF,Kd,HLA-B*08:01 [5]; [9],157 nM
same,Kd,HLA-A*32:01,0.726 nM
RASFIEVKTC,Kd,HLA-B*57:01; [11],53.7 nM
KRVVASLMR,Kd,HLA-B*48:01,≥ 20000 nM
VMLIGIEIL,IC50,HLA-A*02:01 [6],161 nM
same,IC50,HLA-A*24:02; [9],37600 nM
SEHTGREIV,Kd,HLA-B*44:02; source organism: dengue virus type 1,≥ 20000 nM
same,Kd,HLA-B*18:01,2040 nM
DNTQSEHSF,IC50,HLA-A*24:02; source organism: Zaire ebolavirus,49700 nM
RWGGTCRIL,IC50,HLA-A*24:02; [10],230 nM
KMRPMFAVGL,Kd,HLA-B*08:01 [5]; [11],4580 nM
EPWLKNNQF,Kd,HLA-B*53:01; [12],2580 nM
same,Kd,HLA-B*35:01; [12],1030 nM
NFAEGVIAF,IC50,HLA-A*24:02; [10],4180 nM
MKMKKKTWL,Kd,HLA-B*08:01 [5]; [13],62.9 nM
FALLAGFMAY,Kd,HLA-A*01:01 [7],13500 nM
same,Kd,HLA-B*53:01; [13],3150 nM
same,Kd,HLA-B*15:01 [8],6.41 nM
same,Kd,HLA-B*35:01; [13],13.3 nM
GSRAIWYMW,Kd,HLA-B*57:01; [13],1.72 nM
VLKPSVIEE,IC50,HLA-A*11:01; [9],≥ 257000 nM
VMAVGLVSIL,Kd,HLA-B*08:01 [5]; [12],154 nM
GLNSRSTSL,Kd,HLA-A*02:03,16.4 nM
same,Kd,HLA-B*08:01 [5]; [11],14.7 nM
